Source: US20230065562A1, “DUAL CONTROLS FOR THERAPEUTIC CELL ACTIVATION OR ELIMINATION” (Bellicum Pharmaceuticals, Inc., priority 2015, published 2023)
Entries after “also recorded” stand apart in the source; their conditions may differ. Where a SMILES comes first, the peptide text is derived from it. Where no end group is shown, it is not given here. The star is where a group is joined. Cbz = O=C(OCc1ccccc1)*; CH2F = FC*

Key:
Assay type in all cases: cell-based, human
[1] = tested on: iCasp9M-transduced EBV-CTLs; experiment: CID-induced apoptosis / loss of GFP+ cells in iCasp9M-transduced EBV-CTLs; details: 100 μM for 1 hour prior to adding CID
Protocol: CID (AP20187; ARIAD Pharmaceuticals) at indicated concentrations was added to transfected 293T cells or transduced CTLs. Adherent and nonadherent cells were harvested and washed with annexin binding buffer (BD Pharmingen, San Jose, Calif.). Cells were stained with annexin-V and 7-amino-actinomycin D (7-AAD) for 15 minutes according to the manufacturer's instructions (BD Pharmingen). Within 1 hour after staining, cells were analyzed by flow cytometry using CellQuest software (Becton Dickinson).
Inducible iCasp9M proficiency in CTLs was tested by monitoring loss of GFP-expressing cells after administration of CID; 91.3% (range, 89.5%-92.6% in 5 different donors) of GFP^+ cells were eliminated after a single 10-nM dose of CID. […] In all experiments, CTLs that survived CID treatment had low transgene expression with a 70% (range, 55%-82%) reduction in mean fluorescence intensity of GFP after CID. No further elimination of the surviving GFP^+ T cells could be obtained by an antigenic stimulation followed by a second 10-nM dose of CID. Therefore, the non-responding CTLs most likely expressed insufficient iCasp9M for functional activation by CID. To investigate the correlation between low levels of expression and CTL non-response to CID, CTLs were sorted for low, intermediate, and high expression of the linked marker gene GFP and mixed 1:1 with nontransduced CTLs from the same donor to allow for an accurate quantitation of the number of transduced T cells responding to CID-induced apoptosis.
The number of transduced T cells eliminated increased with the level of GFP transgene expression (see FIGS. 4A, 4B and 4C). To determine the correlation between transgene expression and function of iCasp9M, iCasp9M IRES.GFP-transduced EBV-CTL were selected for low (mean 21), intermediate (mean 80) and high (mean 189) GFP expression. Selected T-cells were incubated overnight with 10 nM CID and subsequently stained with annexin V and 7-AAD. Indicated are the percentages of annexin V+/7-AAD− and annexin V+/7-AAD+ T−. Selected T-cells were mixed 1:1 with non-transduced T-cells and incubated with 10 nM CID following antigenic stimulation. Indicated is the percentage of residual GFP-positive T-cells on day 7.
For GFPhigh-selected cells, 10 nM CID led to deletion of 99.1% (range, 98.7%-99.4%) of transduced cells. On the day of antigen stimulation, F-Casp9M.I.GFP-transduced CTLs were either untreated or treated with 10 nM CID. Seven days later, the response to CID was measured by flow cytometry for GFP. The percentage of transduced T cells was adjusted to 50% to allow for an accurate measurement of residual GFP^+ cells after CID treatment. The responses to CID in unselected (top row of and GFPhigh-selected CTLs (bottom row of was compared. The percentage of residual GFP^+ cells is indicated.
After overnight incubation with 10 nM CID, F-Casp9M.I.GFPhigh-transduced T cells had apoptotic characteristics such as cell shrinkage and fragmentation by microscopic evaluation. […] A representative example of 3 separate experiments is shown.

transduced T cells = experiment: T cell caspase assay (IncuCyte, caspase 3/7 green reagent)
Protocol: To enable detection of apoptosis using the IncuCyte instrument, 2 μM of IncuCyte™ Kinetic Caspase-3/7 Apoptosis reagent (Essen Bioscience, 4440) were add to each well to reach a total volume of 200 μl. The plates were centrifuged for 5 min at 400×g and placed inside the IncuCyte (Dual Color Model 4459) to monitor green fluorescence every 2-3 hours for a total of 48 hours at 10× objective. Image analysis was performed using the “Tcells_caspreagent_phase_green_10×_MLD” processing definition. The “Total Green Object Integrated Intensity” metric is used to quantify caspase activation. Each condition was performed in duplicates and each well was imaged at 4 different locations.
To enable detection of apoptosis using the IncuCyte instrument, 2 μM of IncuCyte™ Kinetic Caspase-3/7 Apoptosis reagent (Essen Bioscience, 4440) was added to each well to reach a total volume of 200 μl. The plates were centrifuged for 5 min at 400×g and placed inside the IncuCyte (Dual Color Model 4459) to monitor green fluorescence every 2-3 hours for a total of 48 hours at 10× objective. Image analysis was performed using the “Tcells_caspreagent_phase_green_10×_MLD” processing definition. The “Total Green Object Integrated Intensity” metric and the “Phase Object Confluence (Percent)” were used to quantify caspase activation. Each condition was performed in duplicate and each well was imaged at 4 different locations.

HEK293T/16 cells = experiment: Secreted alkaline phosphatase (SEAP)-based surrogate killing assay of iCasp9 mutants; details: for Basal Activity (relative to wild type/unmodified Caspase-9): SEAP assay without AP1903; for basal activity: relative SEAP activity Units: no AP1903
primary T cells = experiment: AP1903-dependent cytotoxicity in primary T cells transduced with iCasp9 variants; details: for killing of target T cells within 10 days: AP1903 at day 0 and day 4; for sensitivity to AP1903 in primary T cells: mostly single copy, 24-hour assay
Protocol: The effects of various caspase polypeptides at mostly single copy in primary T cells was assayed. This may reflect more accurately how these suicide genes will be used therapeutically.
Primary T cells from healthy donors (n=6) were transduced with retrovirus encoding mutant or wild-type iCasp9 or iCasp9-D330A, and the ΔCD19 cell surface marker. Following transduction, iCasp9-transduced T cells were purified using CD19-microbeads and a magnetic column.

**Q.** With `COC(=O)C[C@H](NC(=O)[C@H](C)NC(=O)[C@@H](NC(=O)OCc1ccccc1)C(C)C)C(=O)CF` [zVAD-fmk] (Cbz-Val-Ala-Asp(OMe)-CH2F) as the molecule, how does the “effect on CID-induced apoptosis” value [1] read?
**A.** The value was “inhibited”.

**Q.** For Q-LEHD-OPh (QLEHD-OPh), which “level not toxic to the T cells” value (transduced T cells) is on record?
**A.** The value was > 100 µM.

**Q.** And the “concentration efficiently inhibiting caspase-9 activation by iC9 and iRC9” value (transduced T cells; 20 nM of the respective activating ligands)?
**A.** Its value is ≤ 4 µM.

B1: ^402GCFNF^406QPTFT: modified iCasp9, residues 402-406 replaced by Caspase-8 QPTFT (protein, UniProt P55211 1-416, looked up, variant G402Q C403P F404T N405F F406T)
chain: MDEADRRLLRRCRLRLVEELQVDQLWDALLSRELFRPHMIEDIQRAGSGSRRDQARQLIIDLETRGSQALPLFISCLEDTGQDMLASFLRTNRQAAKLSKPTLENLTPVVLRPEIRKPEVLRPETPRPVDIGSGGFGDVGALESLRGNADLAYILSMEPCGHCLIINNVNFCRESGLRTRTGSNIDCEKLRRRFSSLHFMVEVKGDLTAKKMVLALLELAQQDHGALDCCVVVILSHGCQASHLQFPGAVYGTDGCPVSVEKIVNIFNGTSCPSLGGKPKLFFIQACGGEQKDHGFEVASTSPEDESPGSNPEPDATPFQEGLRTFDQLDAISSLPTPSDIFVSYSTFPGFVSWRDPKSGSWYVETLDDIFEQWAHSEDLQSLLLRVANAVSVKGIYKQMPQPTFTLRKKLFFKTS
modifications: FKBP12-F36V fusion (iCasp9), CARD deleted
notes: modified iCasp9, residues 402-406 replaced by Caspase-8 QPTFT
**Q.** For B1, which “Basal Activity (relative to wild type/unmodified Caspase-9)” value (HEK293T/16 cells) is on record?
**A.** Its value is “dead”.

B2: N405Q: modified iCasp9, N405Q (SEQ ID NO: 26) (protein)
chain: GFGDVGALESLRGNADLAYILSMEPCGHCLIINNVNFCRESGLRTRTGSNIDCEKLRRRFSSLHFMVEVKGDLTAKKMVLALLELARQDHGALDCCVVVILSHGCQASHLQFPGAVYGTDGCPVSVEKIVNIFNGTSCPSLGGKPKLFFIQACGGEQKDHGFEVASTSPEDESPGSNPEPDATPFQEGLRTFDQLDAISSLPTPSDIFVSYSTFPGFVSWRDPKSGSWYVETLDDIFEQWAHSEDLQSLLLRVANAVSVKGIYKQMPGCFQFLRKKLFFKTS
**Q.** For B2, which “basal activity: relative SEAP activity Units” value (HEK293T/16 cells; 1 μg iCasp9 per million cells) is on record?
**A.** The value was 179081 Units.

**Q.** What about the “basal activity: relative SEAP activity Units” value (HEK293T/16 cells; 2 μg iCasp9 per million cells) of the same molecule?
**A.** Its value is 175529 Units.

**Q.** What about the “Basal Activity (relative to wild type/unmodified Caspase-9)” value (HEK293T/16 cells) of the same molecule?
**A.** Its value is “lower basal signaling; also recorded: lowered basal activity; also recorded: consistently lower basal activity; also recorded: lower basal activity than D330A; also recorded: very low basal activity; also recorded: Decreased”.

**Q.** What about the “killing of target T cells within 10 days” value (primary T cells) of the same molecule?
**A.** The value was “indistinguishable from wild type”.

**Q.** And the “sensitivity to AP1903 in primary T cells” value (primary T cells)?
**A.** The value was “less sensitive to AP1903”.

B3: D330A: modified iCasp9, D330A (SEQ ID NO: 24) (protein)
chain: GFGDVGALESLRGNADLAYILSMEPCGHCLIINNVNFCRESGLRTRTGSNIDCEKLRRRFSSLHFMVEVKGDLTAKKMVLALLELARQDHGALDCCVVVILSHGCQASHLQFPGAVYGTDGCPVSVEKIVNIFNGTSCPSLGGKPKLFFIQACGGEQKDHGFEVASTSPEDESPGSNPEPDATPFQEGLRTFDQLAAISSLPTPSDIFVSYSTFPGFVSWRDPKSGSWYVETLDDIFEQWAHSEDLQSLLLRVANAVSVKGIYKQMPGCFNFLRKKLFFKTS
**Q.** How did the “basal activity: relative SEAP activity Units” value (HEK293T/16 cells; 1 μg iCasp9 per million cells) turn out when B3 was run?
**A.** Its value is 148928 Units.

**Q.** And the “basal activity: relative SEAP activity Units” value (HEK293T/16 cells; 2 μg iCasp9 per million cells)?
**A.** Its value is 136863 Units.

**Q.** What about the “Basal Activity (relative to wild type/unmodified Caspase-9)” value (HEK293T/16 cells) of the same molecule?
**A.** Its value is “lowered basal signaling; also recorded: lowered basal activity; also recorded: less basal activity than wild type Caspase-9; also recorded: Decreased”.

**Q.** And the “IC50 of AP1903 in transduced T cells versus wild-type iCasp9” value (primary T cells; AP1903 0-100 nM, 24 hours, 6 donors)?
**A.** The value was “significantly lower”.

**Q.** What about the “sensitivity to AP1903 in primary T cells” value (primary T cells) of the same molecule?
**A.** Its value is “more sensitive to AP1903 at low titers; also recorded: more sensitive to AP1903 than the wild type”.

B4: F404Y: modified iCasp9, F404Y (protein)
chain: VDGFGDVGALESLRGNADLAYILSMEPCGHCLIINNVNFCRESGLRTRTGSNIDCEKLRRRFSSLHFMVEVKGDLTAKKMVLALLELARQDHGALDCCVVVILSHGCQASHLQFPGAVYGTDGCPVSVEKIVNIFNGTSCPSLGGKPKLFFIQACGGEQKDHGFEVASTSPEDESPGSNPEPDATPFQEGLRTFDQLDAISSLPTPSDIFVSYSTFPGFVSWRDPKSGSWYVETLDDIFEQWAHSEDLQSLLLRVANAVSVKGIYKQMPGCYNFLRKKLFFKTSASRA
**Q.** What does the source list for B4?
**A.** Basal Activity (relative to wild type/unmodified Caspase-9) (HEK293T/16 cells): lowered basal activity; also recorded: Decreased; killing of target T cells within 10 days (primary T cells): indistinguishable from wild type

B5: S196D: modified iCasp9, S196D (protein)
chain: VDGFGDVGALESLRGNADLAYILSMEPCGHCLIINNVNFCRESGLRTRTGSNIDCEKLRRRFSDLHFMVEVKGDLTAKKMVLALLELARQDHGALDCCVVVILSHGCQASHLQFPGAVYGTDGCPVSVEKIVNIFNGTSCPSLGGKPKLFFIQACGGEQKDHGFEVASTSPEDESPGSNPEPDATPFQEGLRTFDQLDAISSLPTPSDIFVSYSTFPGFVSWRDPKSGSWYVETLDDIFEQWAHSEDLQSLLLRVANAVSVKGIYKQMPGCFNFLRKKLFFKTSASRA
**Q.** For B5, which “Basal Activity (relative to wild type/unmodified Caspase-9)” value (HEK293T/16 cells) is on record?
**A.** Its value is “Decreased”.

B6: S144D: modified iCasp9, S144D (protein)
chain: VDGFGDVGALEDLRGNADLAYILSMEPCGHCLIINNVNFCRESGLRTRTGSNIDCEKLRRRFSSLHFMVEVKGDLTAKKMVLALLELARQDHGALDCCVVVILSHGCQASHLQFPGAVYGTDGCPVSVEKIVNIFNGTSCPSLGGKPKLFFIQACGGEQKDHGFEVASTSPEDESPGSNPEPDATPFQEGLRTFDQLDAISSLPTPSDIFVSYSTFPGFVSWRDPKSGSWYVETLDDIFEQWAHSEDLQSLLLRVANAVSVKGIYKQMPGCFNFLRKKLFFKTSASRA
**Q.** For B6, which “Basal Activity (relative to wild type/unmodified Caspase-9)” value (HEK293T/16 cells) is on record?
**A.** Its value is “Decreased”.

B7: S144A: modified iCasp9, S144A (protein)
chain: VDGFGDVGALEALRGNADLAYILSMEPCGHCLIINNVNFCRESGLRTRTGSNIDCEKLRRRFSSLHFMVEVKGDLTAKKMVLALLELARQDHGALDCCVVVILSHGCQASHLQFPGAVYGTDGCPVSVEKIVNIFNGTSCPSLGGKPKLFFIQACGGEQKDHGFEVASTSPEDESPGSNPEPDATPFQEGLRTFDQLDAISSLPTPSDIFVSYSTFPGFVSWRDPKSGSWYVETLDDIFEQWAHSEDLQSLLLRVANAVSVKGIYKQMPGCFNFLRKKLFFKTSASRA
**Q.** For B7, which “Basal Activity (relative to wild type/unmodified Caspase-9)” value (HEK293T/16 cells) is on record?
**A.** Its value is “Decreased”.
